Experimental data published in US20120172293A1 (Takeda / Millennium, published 2012).
Starred links: 1 amine or outer side, 2 acyl side, 3 side chain; linkers in the order of their positions; H or OH if unused. Non-standard residues stand in square brackets, D forms with d. No end group written: not given here. Azetidine3carboxylic = O=C(C1CN([*:1])C1)[*:2]; Dap(CONH2) = NC(=O)NC[C@H](N)C(=O)O; 3Pal = N[C@@H](Cc1cccnc1)C(=O)O; 4Pal = N[C@@H](Cc1ccncc1)C(=O)O; dHyp = O=C(O)[C@H]1C[C@H](O)CN1; Cha = N[C@@H](CC1CCCCC1)C(=O)O; NMeS = CN[C@@H](CO)C(=O)O; dPip = O=C(O)[C@H]1CCCCN1; hSer = N[C@@H](CCO)C(=O)O; NMeA = CN[C@@H](C)C(=O)O; Nle = CCCC[C@H](N)C(=O)O; dNMeA = CN[C@H](C)C(=O)O; Aib = CC(C)(N)C(=O)O; Sar = CNCC(=O)O

B1: Ac-[D-Ser23, Sar24, Cha27,28,36, Aib31]-PYY(23-36) (peptide)
peptide: Ac-[dS][Sar]RH[Cha][Cha]NL[Aib]TRQR[Cha]-NH2
SMILES: CC(=O)N[C@H](CO)C(=O)N(C)CC(=O)N[C@@H](CCCNC(=N)N)C(=O)N[C@@H](Cc1c[nH]cn1)C(=O)N[C@@H](CC1CCCCC1)C(=O)N[C@@H](CC1CCCCC1)C(=O)N[C@@H](CC(N)=O)C(=O)N[C@@H](CC(C)C)C(=O)NC(C)(C)C(=O)N[C@H](C(=O)N[C@@H](CCCNC(=N)N)C(=O)N[C@@H](CCC(N)=O)C(=O)N[C@@H](CCCNC(=N)N)C(=O)N[C@@H](CC1CCCCC1)C(N)=O)[C@@H](C)O
B2: Ac-[MeSer23, D-Pro24, Cha27,28,36, Aib31]-PYY(22-36) (peptide)
peptide: Ac-A[NMeS][dP]RH[Cha][Cha]NL[Aib]TRQR[Cha]-NH2
SMILES: CC(=O)N[C@@H](C)C(=O)N(C)[C@@H](CO)C(=O)N1CCC[C@@H]1C(=O)N[C@@H](CCCNC(=N)N)C(=O)N[C@@H](Cc1c[nH]cn1)C(=O)N[C@@H](CC1CCCCC1)C(=O)N[C@@H](CC1CCCCC1)C(=O)N[C@@H](CC(N)=O)C(=O)N[C@@H](CC(C)C)C(=O)NC(C)(C)C(=O)N[C@H](C(=O)N[C@@H](CCCNC(=N)N)C(=O)N[C@@H](CCC(N)=O)C(=O)N[C@@H](CCCNC(=N)N)C(=O)N[C@@H](CC1CCCCC1)C(N)=O)[C@@H](C)O
B3: Ac-[Glu23, D-Pic(2)24, Cha27,28,36, Aib31]-PYY(23-36) (peptide)
peptide: Ac-E[dPip]RH[Cha][Cha]NL[Aib]TRQR[Cha]-NH2
SMILES: CC(=O)N[C@@H](CCC(=O)O)C(=O)N1CCCC[C@@H]1C(=O)N[C@@H](CCCNC(=N)N)C(=O)N[C@@H](Cc1c[nH]cn1)C(=O)N[C@@H](CC1CCCCC1)C(=O)N[C@@H](CC1CCCCC1)C(=O)N[C@@H](CC(N)=O)C(=O)N[C@@H](CC(C)C)C(=O)NC(C)(C)C(=O)N[C@H](C(=O)N[C@@H](CCCNC(=N)N)C(=O)N[C@@H](CCC(N)=O)C(=O)N[C@@H](CCCNC(=N)N)C(=O)N[C@@H](CC1CCCCC1)C(N)=O)[C@@H](C)O
B4: Ac-[D-Pro24, Hse26, Cha27,36, Aib28,31]-PYY(23-36) (peptide)
peptide: Ac-S[dP]R[hSer][Cha][Aib]NL[Aib]TRQR[Cha]-NH2
SMILES: CC(=O)N[C@@H](CO)C(=O)N1CCC[C@@H]1C(=O)N[C@@H](CCCNC(=N)N)C(=O)N[C@@H](CCO)C(=O)N[C@@H](CC1CCCCC1)C(=O)NC(C)(C)C(=O)N[C@@H](CC(N)=O)C(=O)N[C@@H](CC(C)C)C(=O)NC(C)(C)C(=O)N[C@H](C(=O)N[C@@H](CCCNC(=N)N)C(=O)N[C@@H](CCC(N)=O)C(=O)N[C@@H](CCCNC(=N)N)C(=O)N[C@@H](CC1CCCCC1)C(N)=O)[C@@H](C)O
B5: Ac-[D-Hyp24, Cha27,28,36, Aib31]-PYY(23-36) (peptide)
peptide: Ac-S[dHyp]RH[Cha][Cha]NL[Aib]TRQR[Cha]-NH2
SMILES: CC(=O)N[C@@H](CO)C(=O)N1C[C@@H](O)C[C@@H]1C(=O)N[C@@H](CCCNC(=N)N)C(=O)N[C@@H](Cc1c[nH]cn1)C(=O)N[C@@H](CC1CCCCC1)C(=O)N[C@@H](CC1CCCCC1)C(=O)N[C@@H](CC(N)=O)C(=O)N[C@@H](CC(C)C)C(=O)NC(C)(C)C(=O)N[C@H](C(=O)N[C@@H](CCCNC(=N)N)C(=O)N[C@@H](CCC(N)=O)C(=O)N[C@@H](CCCNC(=N)N)C(=O)N[C@@H](CC1CCCCC1)C(N)=O)[C@@H](C)O
B6: Ac-[D-Pic(2)24, Cha27,28,36, Aib31]-PYY(23-36) (peptide)
peptide: Ac-S[dPip]RH[Cha][Cha]NL[Aib]TRQR[Cha]-NH2
SMILES: CC(=O)N[C@@H](CO)C(=O)N1CCCC[C@@H]1C(=O)N[C@@H](CCCNC(=N)N)C(=O)N[C@@H](Cc1c[nH]cn1)C(=O)N[C@@H](CC1CCCCC1)C(=O)N[C@@H](CC1CCCCC1)C(=O)N[C@@H](CC(N)=O)C(=O)N[C@@H](CC(C)C)C(=O)NC(C)(C)C(=O)N[C@H](C(=O)N[C@@H](CCCNC(=N)N)C(=O)N[C@@H](CCC(N)=O)C(=O)N[C@@H](CCCNC(=N)N)C(=O)N[C@@H](CC1CCCCC1)C(N)=O)[C@@H](C)O
B7: Ac-[Aze(3)24, Cha27,28,36, Aib31]-PYY(23-36) (peptide)
peptide: Ac-S[Azetidine3carboxylic]RH[Cha][Cha]NL[Aib]TRQR[Cha]-NH2
SMILES: CC(=O)N[C@@H](CO)C(=O)N1CC(C(=O)N[C@@H](CCCNC(=N)N)C(=O)N[C@@H](Cc2c[nH]cn2)C(=O)N[C@@H](CC2CCCCC2)C(=O)N[C@@H](CC2CCCCC2)C(=O)N[C@@H](CC(N)=O)C(=O)N[C@@H](CC(C)C)C(=O)NC(C)(C)C(=O)N[C@H](C(=O)N[C@@H](CCCNC(=N)N)C(=O)N[C@@H](CCC(N)=O)C(=O)N[C@@H](CCCNC(=N)N)C(=O)N[C@@H](CC2CCCCC2)C(N)=O)[C@@H](C)O)C1
B8: Ac-[D-Pro24, Nle25, Pya(4)26, Cha27,28,36, Aib31]-PYY(23-36) (peptide)
peptide: Ac-S[dP][Nle][4Pal][Cha][Cha]NL[Aib]TRQR[Cha]-NH2
SMILES: CCCC[C@H](NC(=O)[C@H]1CCCN1C(=O)[C@H](CO)NC(C)=O)C(=O)N[C@@H](Cc1ccncc1)C(=O)N[C@@H](CC1CCCCC1)C(=O)N[C@@H](CC1CCCCC1)C(=O)N[C@@H](CC(N)=O)C(=O)N[C@@H](CC(C)C)C(=O)NC(C)(C)C(=O)N[C@H](C(=O)N[C@@H](CCCNC(=N)N)C(=O)N[C@@H](CCC(N)=O)C(=O)N[C@@H](CCCNC(=N)N)C(=O)N[C@@H](CC1CCCCC1)C(N)=O)[C@@H](C)O
B9: Ac-[Glu23, D-Pro24, Pya(4)26, Cha27,28,36, Aib31]-PYY(23-36) (peptide)
peptide: Ac-E[dP]R[4Pal][Cha][Cha]NL[Aib]TRQR[Cha]-NH2
SMILES: CC(=O)N[C@@H](CCC(=O)O)C(=O)N1CCC[C@@H]1C(=O)N[C@@H](CCCNC(=N)N)C(=O)N[C@@H](Cc1ccncc1)C(=O)N[C@@H](CC1CCCCC1)C(=O)N[C@@H](CC1CCCCC1)C(=O)N[C@@H](CC(N)=O)C(=O)N[C@@H](CC(C)C)C(=O)NC(C)(C)C(=O)N[C@H](C(=O)N[C@@H](CCCNC(=N)N)C(=O)N[C@@H](CCC(N)=O)C(=O)N[C@@H](CCCNC(=N)N)C(=O)N[C@@H](CC1CCCCC1)C(N)=O)[C@@H](C)O
B10: Ac-[D-MeAla24, Cha27,28,36, Aib31]-PYY(23-36) (peptide)
peptide: Ac-S[dNMeA]RH[Cha][Cha]NL[Aib]TRQR[Cha]-NH2
SMILES: CC(=O)N[C@@H](CO)C(=O)N(C)[C@H](C)C(=O)N[C@@H](CCCNC(=N)N)C(=O)N[C@@H](Cc1c[nH]cn1)C(=O)N[C@@H](CC1CCCCC1)C(=O)N[C@@H](CC1CCCCC1)C(=O)N[C@@H](CC(N)=O)C(=O)N[C@@H](CC(C)C)C(=O)NC(C)(C)C(=O)N[C@H](C(=O)N[C@@H](CCCNC(=N)N)C(=O)N[C@@H](CCC(N)=O)C(=O)N[C@@H](CCCNC(=N)N)C(=O)N[C@@H](CC1CCCCC1)C(N)=O)[C@@H](C)O
B11: Ac-[D-Pro24, Alb26, Cha27,28,36, Aib31]-PYY(23-36) (peptide)
peptide: Ac-S[dP]R[Dap(CONH2)][Cha][Cha]NL[Aib]TRQR[Cha]-NH2
SMILES: CC(=O)N[C@@H](CO)C(=O)N1CCC[C@@H]1C(=O)N[C@@H](CCCNC(=N)N)C(=O)N[C@@H](CNC(N)=O)C(=O)N[C@@H](CC1CCCCC1)C(=O)N[C@@H](CC1CCCCC1)C(=O)N[C@@H](CC(N)=O)C(=O)N[C@@H](CC(C)C)C(=O)NC(C)(C)C(=O)N[C@H](C(=O)N[C@@H](CCCNC(=N)N)C(=O)N[C@@H](CCC(N)=O)C(=O)N[C@@H](CCCNC(=N)N)C(=O)N[C@@H](CC1CCCCC1)C(N)=O)[C@@H](C)O
B12: Ac-[D-Pro24, Pya(3)26, Cha27,28,36, Aib31]-PYY(23-36) (peptide)
peptide: Ac-S[dP]R[3Pal][Cha][Cha]NL[Aib]TRQR[Cha]-NH2
SMILES: CC(=O)N[C@@H](CO)C(=O)N1CCC[C@@H]1C(=O)N[C@@H](CCCNC(=N)N)C(=O)N[C@@H](Cc1cccnc1)C(=O)N[C@@H](CC1CCCCC1)C(=O)N[C@@H](CC1CCCCC1)C(=O)N[C@@H](CC(N)=O)C(=O)N[C@@H](CC(C)C)C(=O)NC(C)(C)C(=O)N[C@H](C(=O)N[C@@H](CCCNC(=N)N)C(=O)N[C@@H](CCC(N)=O)C(=O)N[C@@H](CCCNC(=N)N)C(=O)N[C@@H](CC1CCCCC1)C(N)=O)[C@@H](C)O
B13: Ac-[D-MeAla22, D-Pro24, Cha27,28,36, Aib31]-PYY(22-36) (peptide)
peptide: Ac-[dNMeA]S[dP]RH[Cha][Cha]NL[Aib]TRQR[Cha]-NH2
SMILES: CC(=O)N(C)[C@H](C)C(=O)N[C@@H](CO)C(=O)N1CCC[C@@H]1C(=O)N[C@@H](CCCNC(=N)N)C(=O)N[C@@H](Cc1c[nH]cn1)C(=O)N[C@@H](CC1CCCCC1)C(=O)N[C@@H](CC1CCCCC1)C(=O)N[C@@H](CC(N)=O)C(=O)N[C@@H](CC(C)C)C(=O)NC(C)(C)C(=O)N[C@H](C(=O)N[C@@H](CCCNC(=N)N)C(=O)N[C@@H](CCC(N)=O)C(=O)N[C@@H](CCCNC(=N)N)C(=O)N[C@@H](CC1CCCCC1)C(N)=O)[C@@H](C)O
B14: [MeAla22, D-Pro24, Cha27,28,36, Aib31]-PYY(22-36) (peptide)
peptide: [NMeA]S[dP]RH[Cha][Cha]NL[Aib]TRQR[Cha]-NH2
modifications: N-terminus assumed
SMILES: CN[C@@H](C)C(=O)N[C@@H](CO)C(=O)N1CCC[C@@H]1C(=O)N[C@@H](CCCNC(=N)N)C(=O)N[C@@H](Cc1c[nH]cn1)C(=O)N[C@@H](CC1CCCCC1)C(=O)N[C@@H](CC1CCCCC1)C(=O)N[C@@H](CC(N)=O)C(=O)N[C@@H](CC(C)C)C(=O)NC(C)(C)C(=O)N[C@H](C(=O)N[C@@H](CCCNC(=N)N)C(=O)N[C@@H](CCC(N)=O)C(=O)N[C@@H](CCCNC(=N)N)C(=O)N[C@@H](CC1CCCCC1)C(N)=O)[C@@H](C)O

These binders were tested against human Y2 receptor (human) (UniProt P49146) (assay: cell-based or functional assay).
Sequence of human Y2 receptor (human) (P49146 whole entry): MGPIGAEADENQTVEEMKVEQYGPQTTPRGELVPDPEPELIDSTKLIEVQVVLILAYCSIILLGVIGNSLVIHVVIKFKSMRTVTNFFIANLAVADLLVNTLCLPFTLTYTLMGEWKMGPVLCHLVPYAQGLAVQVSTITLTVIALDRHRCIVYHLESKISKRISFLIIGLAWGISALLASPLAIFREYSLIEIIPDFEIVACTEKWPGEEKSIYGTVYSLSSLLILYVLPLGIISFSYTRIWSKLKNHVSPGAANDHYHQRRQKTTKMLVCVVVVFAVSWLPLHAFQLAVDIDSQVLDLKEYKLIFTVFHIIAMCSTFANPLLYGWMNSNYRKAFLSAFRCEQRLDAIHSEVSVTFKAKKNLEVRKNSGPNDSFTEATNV

| Binder | GBA EC50 Ratio (vs PYY(3-36)), [35S]GTPγS |
| --- | --- |
| B1 | 5.3 |
| B2 | 7.8 |
| B3 | 10 |
| B4 | 5.4 |
| B5 | 0.9 |
| B6 | 5.8 |
| B7 | 4.7 |
| B8 | 2.6 |
| B9 | 1.3 |
| B10 | 2.2 |
| B11 | 2.2 |
| B12 | 1.2 |
| B13 | 6.1 |
| B14 | 0.72 |

These binders were tested against human Y2 receptor (human) (UniProt P49146) (assay: RBA: [125I]-PYY displacement, hY2R/CHO membranes).

| Binder | IC50 Ratio (vs PYY(3-36)) |
| --- | --- |
| B1 | 6.6 |
| B2 | 12 |
| B3 | 17 |
| B4 | 11 |
| B5 | 1.1 |
| B6 | 9.9 |
| B7 | 11 |
| B8 | 20 |
| B9 | 4.6 |
| B10 | 3.4 |
| B11 | 12 |
| B12 | 3.3 |
| B13 | 3.5 |
| B14 | 0.6 |
